Experimental data as given in patent publication EP1068241B1.

Assays:
[1] = biological target: FcγRI α subunit-GST fusion (UniProt P12314); assay: ELISA on coated FcγRI α subunit-GST fusion, IgG at 10 µg/ml
[2] = biological target: FcγRIIIa α subunit ECD-6His-GST fusion protein (UniProt P08637); assay: ELISA, E27:chimeric IgE:VEGF immune complex on coated receptor
[3] = biological target: FcγRIIa α subunit ECD-6His-GST fusion protein (UniProt P12318); assay: as above
[4] = biological target: FcγRIIb α subunit ECD-6His-GST fusion protein (UniProt P31994); assay: as above
FcγRIIb α subunit ECD-6His-GST fusion protein, sequence (P31994 other isoform, or with tags, fused parts or gaps): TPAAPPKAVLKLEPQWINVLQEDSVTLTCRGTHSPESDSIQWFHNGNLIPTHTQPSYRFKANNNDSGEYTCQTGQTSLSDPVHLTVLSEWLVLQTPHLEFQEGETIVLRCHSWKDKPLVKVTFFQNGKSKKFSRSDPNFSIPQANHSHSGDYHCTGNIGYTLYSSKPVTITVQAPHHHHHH

human C1q (human) [5] = biological target: human C1q (human) (UniProt P02745); assay: C1q binding ELISA
human C1q (human), sequence (P02745 23-245 limits assumed, chain 1 of 3): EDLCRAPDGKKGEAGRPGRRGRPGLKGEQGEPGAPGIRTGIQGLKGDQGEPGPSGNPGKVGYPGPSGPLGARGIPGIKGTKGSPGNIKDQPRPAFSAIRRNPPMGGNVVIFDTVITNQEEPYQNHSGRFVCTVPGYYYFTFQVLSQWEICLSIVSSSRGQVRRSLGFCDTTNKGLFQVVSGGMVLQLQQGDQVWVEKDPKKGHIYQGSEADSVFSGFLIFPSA
human C1q (human), sequence (P02746 28-253 limits assumed, chain 2 of 3, further chain): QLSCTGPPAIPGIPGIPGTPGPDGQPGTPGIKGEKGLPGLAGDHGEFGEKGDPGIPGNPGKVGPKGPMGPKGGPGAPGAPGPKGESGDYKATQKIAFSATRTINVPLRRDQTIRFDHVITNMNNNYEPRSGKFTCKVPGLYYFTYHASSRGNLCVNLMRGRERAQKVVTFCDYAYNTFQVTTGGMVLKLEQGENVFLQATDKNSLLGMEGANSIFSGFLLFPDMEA
human C1q (human), sequence (P02747 29-245 limits assumed, chain 3 of 3, further chain): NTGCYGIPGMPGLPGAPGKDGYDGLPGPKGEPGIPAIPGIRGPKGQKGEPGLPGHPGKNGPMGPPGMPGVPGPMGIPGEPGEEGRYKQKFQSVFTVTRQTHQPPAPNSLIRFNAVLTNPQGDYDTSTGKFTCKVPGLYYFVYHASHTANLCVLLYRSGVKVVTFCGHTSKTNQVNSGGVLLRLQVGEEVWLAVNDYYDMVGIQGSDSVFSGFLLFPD

CD20 antigen = CD20 antigen (UniProt P11836); assay: flow cytometry on WIL2-S cells
CD20 antigen, sequence (P11836 whole entry): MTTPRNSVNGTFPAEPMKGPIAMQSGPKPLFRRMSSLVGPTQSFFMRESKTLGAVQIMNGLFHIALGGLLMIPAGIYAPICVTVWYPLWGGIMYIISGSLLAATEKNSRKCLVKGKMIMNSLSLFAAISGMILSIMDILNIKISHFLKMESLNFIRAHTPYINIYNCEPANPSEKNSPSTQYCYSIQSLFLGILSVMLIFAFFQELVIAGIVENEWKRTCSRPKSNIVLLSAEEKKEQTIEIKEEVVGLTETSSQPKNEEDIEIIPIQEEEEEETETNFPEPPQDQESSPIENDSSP

human C1q (human) [6] = biological target: human C1q (human) (UniProt P02745); assay: cell-based or functional assay

FcγRIIIa α subunit ECD-6His-GST fusion protein, sequence (P08637 other isoform, or with tags, fused parts or gaps): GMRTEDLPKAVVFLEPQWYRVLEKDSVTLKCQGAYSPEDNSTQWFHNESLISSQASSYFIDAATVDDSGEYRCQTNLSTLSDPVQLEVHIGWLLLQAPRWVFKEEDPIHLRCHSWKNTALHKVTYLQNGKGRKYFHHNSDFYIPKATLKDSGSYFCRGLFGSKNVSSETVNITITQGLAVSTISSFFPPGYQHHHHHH
FcγRI α subunit-GST fusion, sequence (P12314 other isoform, or with tags, fused parts or gaps): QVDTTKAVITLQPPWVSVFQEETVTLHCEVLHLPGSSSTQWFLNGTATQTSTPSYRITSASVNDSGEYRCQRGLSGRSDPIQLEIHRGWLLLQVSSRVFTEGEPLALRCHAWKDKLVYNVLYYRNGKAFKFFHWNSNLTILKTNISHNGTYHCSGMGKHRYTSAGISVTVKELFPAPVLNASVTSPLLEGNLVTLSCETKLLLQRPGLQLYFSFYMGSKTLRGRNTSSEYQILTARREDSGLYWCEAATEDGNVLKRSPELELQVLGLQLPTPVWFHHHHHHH
FcγRIIa α subunit ECD-6His-GST fusion protein, sequence (P12318 other isoform, or with tags, fused parts or gaps): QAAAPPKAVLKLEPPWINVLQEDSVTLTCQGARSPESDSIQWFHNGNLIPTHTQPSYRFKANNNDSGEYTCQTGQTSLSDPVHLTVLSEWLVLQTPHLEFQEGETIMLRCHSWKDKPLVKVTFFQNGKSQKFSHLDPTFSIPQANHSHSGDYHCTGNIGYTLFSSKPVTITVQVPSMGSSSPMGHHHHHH

Row | binding as percentage of the wild type [1] [%] | binding as percentage of the wild type [2] [%] | binding as percentage of the wild type [3] [%] | binding as percentage of the wild type [4] [%] | fold lower binding than wild type C2B8 (human C1q (human) [5]) [fold] | EC50 as percentage of the wild type (CD20 antigen) [%] | CDC (percentage of the wild type) (human C1q (human) [6]) [%] | decrease in binding against wild type C2B8 (human C1q (human) [5]) [%] | Substance
1 | 90 | 90 | 109 | 101 | – | – | – | – | E27 anti-IgE antibody mutant K322A
2 | 100 | 100 | 100 | 100 | – | – | – | – | wild type E27 anti-IgE antibody
3 | 102 | 72 | – | 83 | – | – | – | – | E27 anti-IgE antibody mutant K320A
4 | – | – | – | – | 60 | 103 | – | – | C2B8 mutant P331A (antibody)
5 | – | – | – | – | – | 102 | 108 | – | C2B8 mutant K320A (antibody)
6 | 93 | 104 | 113 | 106 | – | – | – | – | E27 anti-IgE antibody mutant E318A
7 | – | – | – | – | – | 112 | – | – | C2B8 mutant P329A (antibody)
8 | – | – | – | – | – | 89 | 108 | 30 | C2B8 mutant E318A (antibody)
9 | 74 | 73 | 86 | 58 | – | – | – | – | E27 anti-IgE antibody mutant P331A
10 | 104 | 85 | – | – | – | – | – | – | E27 anti-IgE antibody mutant P329A
